Measured values as given in publication PMC9579014 (2022).
Positions count from the first letter of the chain named.

B1: clitocypin 2 (protein)
chain: MASLEDGIYRLRAVTTHNPDPGVGGEYATVEGARRPVKAEPNTPPFFAAQAWQVTRNADGQYTIKYQGLNTPFEYGFSYDELEPNAPVIAGDPKEYILQLVPSTADVYIIRAPIQRIGVDVEVGVQGNTLVYKFFPVDGSGGDRPAWRFTRE
B2: clitocypin 2 (protein)
chain: B1 chain with A48E, A49Q, A51I
B3: macrocypin 1a (protein)
chain: GFEDGFYTILHLAEGQHPNSKIPGGMYASSKDGKDVPVTAEPLGPQSKIRWWIARDPQAGDDMYTITEFEIDNSIPGQWSRSPVETEVPVYLYDRIKAEETGYTCAWRIQPADHGADGVYHIVGNVRIGSTDWADLREEYGEPQVYMKPVPVIPNVYIPRWFILGYEE
B4: macrocypin 1a (protein)
chain: B3 chain with E70R
B5: macrocypin 1a (protein)
chain: B3 chain with E70R, R95A

Molecular target: T1, legumain AEP catalytic domain (Homo sapiens, UniProt Q99538)
T1 chain: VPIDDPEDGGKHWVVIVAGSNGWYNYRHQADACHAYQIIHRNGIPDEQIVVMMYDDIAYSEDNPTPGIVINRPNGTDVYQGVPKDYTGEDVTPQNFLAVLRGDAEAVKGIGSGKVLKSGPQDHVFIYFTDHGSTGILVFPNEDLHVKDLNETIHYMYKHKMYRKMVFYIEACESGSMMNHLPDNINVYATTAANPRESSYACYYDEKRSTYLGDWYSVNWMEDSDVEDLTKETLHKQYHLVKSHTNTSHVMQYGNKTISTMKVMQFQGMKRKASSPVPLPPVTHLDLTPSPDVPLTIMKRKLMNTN
Assay: enzyme inhibition assay (AAN-AMC)
Conditions: not given
B1 gave a Ki of 6.69 µM. B2 gave a Ki of 0.079 µM. For B3, the Ki was 0.147 µM. Molecule B4 has a Ki of 0.00218 µM. With B5 the Ki was 0.183 µM.

Molecular target: legumain (Homo sapiens) (UniProt Q99538)
Assay: not given
Conditions: cited from earlier work
In the case of Clitocypin (from UniProt Q9P4A2), the Ki is listed as 0.0215 µM.
